The values below come from article PMC9867676.

Series [1] deals with T1, RinA (Staphylococcus aureus NCTC8325 (phage phi11)), ORF:ad3d0fcb.
T1 sequence: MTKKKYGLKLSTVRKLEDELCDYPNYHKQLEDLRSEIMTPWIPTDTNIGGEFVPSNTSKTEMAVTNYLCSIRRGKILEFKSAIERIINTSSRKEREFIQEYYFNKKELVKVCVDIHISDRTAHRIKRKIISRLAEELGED
The experiment in a line: EMSA. As to conditions: 50 mM Tris-HCl, 300 mM NaCl, pH 8.0 ([…], room temperature.

For series [2] the test system is unchanged. The experiment in a line: competition. As to conditions: 50 mM Tris-HCl, 300 mM NaCl, pH 8.0 ([…], room temperature.

For the sequence “CTAAACCAAATGCTAACCCAGAAATACAATCACTGTGTCTAATGAATAATTTGTTTTATAAACACTTTTTTGTTTACTTCTCATTTTTAATTAGTTATAATTAACTAAATAATAGAGCATTAAATATATTTAATAAAACTTATTTAATGCAAAATTATGACTAACATATCTATAATAAATAAAGATTAGATATCAATATATTATCGGGCAAATGTATCGAGCAAGATGCATCAAATAGGGAGGTTTTAAACATGGC (double strand) [sarA promoter fragment (FAM)]”, in series [1], the binding result is on record as “binds”. For “CTAAACCAAATGCTAACCCAGAAATACAATCACTGTGTCTAATGAATAATTTGTTTTATAAACACTTTTTTGTTTACTTCTCATTTTTAATTAGTTATAATTAACTAAATAATAGAGCATTAAATATATTTAATAAAACTTATTTAATGCAAAATTATGACTAACATATCTATAATAAATAAAGATTAGATATCAATATATTATCGGGCAAATGTATCGAGCAAGATGCATCAAATAGGGAGGTTTTAAACATGGC (double strand) [sarA promoter fragment (unlabeled)]”, the binding result in series [2] is recorded as “binds”.
